In this test the target is TT (tetanus toxin / tetanus toxoid) (UniProt P04958 2-1315). The test can be described thus: ELISA of hybridoma clones. (In general: An ELISA detects its analyte on a solid surface through an enzyme-linked reagent.)
TT (tetanus toxin / tetanus toxoid), sequence (P04958 2-457 limits assumed, chain 1 of 2): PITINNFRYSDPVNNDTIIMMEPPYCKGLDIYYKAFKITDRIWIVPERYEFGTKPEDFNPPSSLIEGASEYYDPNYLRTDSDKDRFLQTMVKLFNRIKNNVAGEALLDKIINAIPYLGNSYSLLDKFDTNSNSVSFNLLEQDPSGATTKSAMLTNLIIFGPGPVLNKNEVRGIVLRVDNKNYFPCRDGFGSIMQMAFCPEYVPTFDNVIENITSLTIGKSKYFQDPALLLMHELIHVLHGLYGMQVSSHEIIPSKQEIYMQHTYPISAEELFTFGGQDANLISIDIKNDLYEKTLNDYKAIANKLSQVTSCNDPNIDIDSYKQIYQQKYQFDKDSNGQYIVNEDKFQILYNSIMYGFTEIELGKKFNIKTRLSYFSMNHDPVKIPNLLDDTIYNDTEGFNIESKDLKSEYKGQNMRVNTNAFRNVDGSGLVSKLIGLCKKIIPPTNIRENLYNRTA
TT (tetanus toxin / tetanus toxoid), sequence (P04958 458-1315 limits assumed, chain 2 of 2): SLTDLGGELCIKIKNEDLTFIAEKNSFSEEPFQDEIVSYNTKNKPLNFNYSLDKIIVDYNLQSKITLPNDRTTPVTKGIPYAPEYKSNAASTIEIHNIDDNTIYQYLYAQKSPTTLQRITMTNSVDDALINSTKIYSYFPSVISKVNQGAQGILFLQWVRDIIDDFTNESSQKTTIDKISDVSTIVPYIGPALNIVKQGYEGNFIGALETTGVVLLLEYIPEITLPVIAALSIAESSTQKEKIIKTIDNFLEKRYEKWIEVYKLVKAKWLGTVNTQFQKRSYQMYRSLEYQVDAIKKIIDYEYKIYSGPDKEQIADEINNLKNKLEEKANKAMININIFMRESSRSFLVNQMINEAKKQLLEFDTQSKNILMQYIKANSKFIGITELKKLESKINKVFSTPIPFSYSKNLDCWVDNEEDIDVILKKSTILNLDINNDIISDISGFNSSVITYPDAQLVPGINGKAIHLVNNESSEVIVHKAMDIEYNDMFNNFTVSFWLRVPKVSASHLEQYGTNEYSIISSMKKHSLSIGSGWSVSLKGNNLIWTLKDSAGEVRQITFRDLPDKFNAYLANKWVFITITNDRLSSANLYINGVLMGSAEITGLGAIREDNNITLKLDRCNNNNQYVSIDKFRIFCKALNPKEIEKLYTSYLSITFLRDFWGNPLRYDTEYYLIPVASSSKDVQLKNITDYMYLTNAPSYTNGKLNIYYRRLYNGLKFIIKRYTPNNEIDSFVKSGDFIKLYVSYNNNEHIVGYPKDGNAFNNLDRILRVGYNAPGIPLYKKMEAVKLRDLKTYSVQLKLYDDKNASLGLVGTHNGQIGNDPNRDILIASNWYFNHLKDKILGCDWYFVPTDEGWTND

B1: anti-GM-CSF human IgG1 monoclonal antibody E10 (antibody, V domains shown)
VH: QVQLEESGGGVVQPGRSLRLSCAASGFTFTNYGMHWVRQAPGKGLEWLALISYDGNRQYYADSVKGRFTVSRDNPNNTLHLEMKSLRAEDSAIYYCARGAGVLLWFGDLSWFDPWGQGTLVTVSS
VL: DIQMTQSPSNLSASVGDRVTITCRASQNINTWLAWYQHKPGKPPKLRIYQASTLESGVPSRFSGSGSGTIFTLTISSLQPDDFGTYYCQQNNSYPYTFGQGTKLEINR
notes: Fully human IgG1 kappa made by a hybridoma from B cells of a PAP patient; also called 4E10; E10.20
As to B1, the binding result was “no binding”.

B2: anti-GM-CSF human IgG1 monoclonal antibody G9 (antibody, V domains shown)
VH: EVQLVESGGGLVQPGGSLRLSCAASGFTFSRHWMHWLRQVPGKGPVWVSRINGAGTSITYADSVRGRFTISRDNANNTLFLQMNSLRADDTALYFCARANSVWFRGLFDYWGQGTPVTVSS
VL: EIVLTQSPVTLSVSPGERVTLSCRASQSVSTNLAWYQQKLGQGPRLLIYGASTRATDIPARFSGSGSETEFTLTISSLQSEDFAVYYCQQYDKWPDTFGQGTKLEIKR
notes: Fully human IgG1 kappa made by a hybridoma from B cells of a PAP patient; also called 10G9; 10G9.1
Take B2: the binding result was “no binding”.

For the origin of these results see patent publication US20080292641A1 (MORPHOTEK, published 2008).
